Measured values from FireProtDB (doi:10.1110/ps.062595707).
Where “and” joins values, the source holds several entries; their conditions need not be identical. Equal values may be shown once.

B1: Ribose import binding protein RbsB, P02925 (parent)
chain: MNMKKLATLVSAVALSATVSANAMAKDTIALVVSTLNNPFFVSLKDGAQKEADKLGYNLVVLDSQNNPAKELANVQDLTVRGTKILLINPTDSDAVGNAVKMANQANIPVITLDRQATKGEVVSHIASDNVLGGKIAGDYIAKKAGEGAKVIELQGIAGTSAARERGEGFQQAVAAHKFNVLASQPADFDRIKGLNVMQNLLTAHPDVQAVFAQNDEMALGALRALQTAGKSDVMVVGFDGTPDGEKAVNDGKLAATIAQLPDQIGAKGVETADKVLKGEKVQAKYPVDLKLVVKQ

Variants of: B1
Settings: Escherichia coli (strain K12); pH 7; Thermal; CD; Phosphate 5 mM; structure 2DRI; whole UniProt chain shown

Variant	Tm	change of melting temperature, mutant - wild type (higher = more stable)
MNMKKLATLVSAVALSATVSANAMAKDTIALVVSTLNNPFFVSLKDGAQKEADKLGYNLVVLDSQNNPAKELANVQDLTVRGTKILLINPTDSDAVGNAVKMANQANIPVITLDRQATKGEVVSHIAADNVLGGKIAGDYIAKKAGEGAKVIELQGIAGTSAARERGEGFQQAVAAHKFNVLASQPADFDRIKGLNVMQNLLTAHPDVQAVFAQNDEMALGALRALQTAGKSDVMVVGFDGTPDGEKAVNDGKLAATIAQLPDQIGAKGVETADKVLKGEKVQAKYPVDLKLVVKQ [S128A]	57.8 °C and 60.7 °C	0.3 °C and -3 °C
MNMKKLATLVSAVALSATVSANAMAKDTIALVVSTLNNPFFVSLKDGAQKEADKLGYNLVVLDSQNNPAKELANVQDLTVRGTKILLIAPTDSDAVGNAVKMANQANIPVITLDRQATKGEVVSHIASDNVLGGKIAGDYIAKKAGEGAKVIELQGIAGTSAARERGEGFQQAVAAHKFNVLASQPADFDRIKGLNVMQNLLTAHPDVQAVFAQNDEMALGALRALQTAGKSDVMVVGFDGTPDGEKAVNDGKLAATIAQLPDQIGAKGVETADKVLKGEKVQAKYPVDLKLVVKQ [N89A]	52.9 °C	-4.6 °C
MNMKKLATLVSAVALSATVSANAMAKDTIALVVATLNNPFFVSLKDGAQKEADKLGYNLVVLDSQNNPAKELANVQDLTVRGTKILLINPTDSDAVGNAVKMANQANIPVITLDRQATKGEVVSHIAADNVLGGKIAGDYIAKKAGEGAKVIELQGAAGTSAARERGEGFQQAVAAHKFNVLASQPADFDRIKGLNVMQNLLTAHPDVQAVFAQNDEMALGALRALQTAGKSDVMVVGFDGTPDGEKAVNDGKLAATIAQLPDQIGAKGVETADKVLKGEKVQAKYPVDLKLVVKQ [S34A I157A S128A]	53.4 °C and 53.7 °C	
MNMKKLATLVSAVALSATVSANAMAKDTIALVVATLNNPFFVSLKDGAQKEADKLGYNLVVLDSQNNPAKELANVQDLTVRGTKILLINPTDSDAVGNAVKMANQANIPVITLDRQATKGEVVSHIASDNVLGGKIAGDYIAKKAGEGAKVIELQGAAGTSAARERGEGFQQAVAAHKFNVLASQPADFDRIKGLNVMQNLLTAHPDVQAVFAQNDEMALGALRALQTAGKSDVMVVGFDGTPDGEKAVNDGKLAATIAQLPDQIGAKGVETADKVLKGEKVQAKYPVDLKLVVKQ [S34A I157A]		-0.7 °C and 2.4 °C
MNMKKLATLVSAVALSATVSANAMAKDTIALVVSTLNNPFFVSLKDGAQKEADKLGYNLVVLDSQNNPAKELANVQDLTVRGTKILLINPTDSDAVGNAVKMANQANIPVITLDRQATKGEVVSHIASDNVLGGKIAGDYIAKKAGEGAKVIELQGIAGTSAARERGEGFQQAVAAHKFNVLASQPADADRIKGLNVMQNLLTAHPDVQAVFAQNDEMALGALRALQTAGKSDVMVVGFDGTPDGEKAVNDGKLAATIAQLPDQIGAKGVETADKVLKGEKVQAKYPVDLKLVVKQ [F189A]	51.7 °C and 53.3 °C	-5.8 °C and -10.4 °C
MNMKKLATLVSAVALSATVSANAMAKDTIALVVATLNAPFFVSLKDGAQKEADKLGYNLVVLDSQNNPAKELANVQDLTVRGTKILLINPTDSDAVGNAVKMANQANIPVITLDRQATKGEVVSHIAADNVLGGKIAGDYIAKKAGEGAKVIELQGAAGTSAARERGEGFQQAVAAHKFNVLASQPADFDRIKGLNVMQNLLTAHPDVQAVFAQNDEMALGALRALQTAGKSDVMVVGFDGTPDGEKAVNDGKLAATIAALPDQIGAKGVETADKVLKGEKVQAKYPVDLKLVVKQ [S34A I157A S128A N38A Q260A]	59 °C	-4.7 °C
MNMKKLATLVSAVALSATVSANAMAKDTIALVVSTLNNPFAVSLKDGAQKEADKLGYNLVVLDSQNNPAKELANVQDLTVRGTKILLINPTDSDAVGNAVKMANQANIPVITLDRQATKGEVVSHIASDNVLGGKIAGDYIAKKAGEGAKVIELQGIAGTSAARERGEGFQQAVAAHKFNVLASQPADFDRIKGLNVMQNLLTAHPDVQAVFAQNDEMALGALRALQTAGKSDVMVVGFDGTPDGEKAVNDGKLAATIAQLPDQIGAKGVETADKVLKGEKVQAKYPVDLKLVVKQ [F41A]	58.9 °C and 57.4 °C	
MNMKKLATLVSAVALSATVSANAMAKDTIALVVATLNNPFFVSLKDGAQKEADKLGYNLVVLDSQNNPAKELANVQDLTVRGTKILLINPTDSDAVGNAVKMANQANIPVITLDRQATKGEVVSHIASDNVLGGKIAGDYIAKKAGEGAKVIELQGIAGTSAARERGEGFQQAVAAHKFNVLASQPADFDRIKGLNVMQNLLTAHPDVQAVFAQNDEMALGALRALQTAGKSDVMVVGFDGTPDGEKAVNDGKLAATIAQLPDQIGAKGVETADKVLKGEKVQAKYPVDLKLVVKQ [S34A]		-1.5 °C and 0.1 °C
MNMKKLATLVSAVALSATVSANAMAKDTIALVVSTLNNPFFVSLKDGAQKEADKLGYNLVVLDSQNNPAKELANVQDLTVRGTKILLINPTDSDAVGNAVKMANQANIPVITLDRQATKGEVVSHIASDNVLGGKIAGDYIAKKAGEGAKVIELQGIAGTSAARERGEGFQQAVAAHKFNVLASQPADFDRIKGLNVMQNLLTAHPDVQAVFAQADEMALGALRALQTAGKSDVMVVGFDGTPDGEKAVNDGKLAATIAQLPDQIGAKGVETADKVLKGEKVQAKYPVDLKLVVKQ [N215A]	49.4 °C and 51.5 °C	-8.1 °C and -12.2 °C
MNMKKLATLVSAVALSATVSANAMAKDTIALVVSTLNNPFFVSLKDGAQKEADKLGYNLVVLDSQNNPAKELANVQDLTVRGTKILLINPTDSDAVGNAVKMANQANIPVITLDRQATKGEVVSHIASDNVLGGKIAGDYIAKKAGEGAKVIELQGIAGTSAARERGEGFQQAVAAHKFNVLASQPADFDRIKGLNVMQNLLTAHPDVQAVFAQNDEMALGALRALQTAGKSDVMVVGFAGTPDGEKAVNDGKLAATIAQLPDQIGAKGVETADKVLKGEKVQAKYPVDLKLVVKQ [D240A]	51.2 °C and 51.3 °C	
MNMKKLATLVSAVALSATVSANAMAKDTIALVVATLNAPFFVSLKDGAQKEADKLGYNLVVLDSQNNPAKELANVQDLTVRGTKILLINPTDSDAVGNAVKMANQANIPVITLDRQATKGEVVSHIAADNVLGGKIAGDYIAKKAGEGAKVIELQGAAGTSAARERGEGFQQAVAAHKFNVLASQPADFDRIKGLNVMQNLLTAHPDVQAVFAQNDEMALGALRALQTAGKSDVMVVGFDGTPDGEKAVNDGKLAATIAQLPDQIGAKGVETADKVLKGEKVQAKYPVDLKLVVKQ [S34A I157A S128A N38A]	54.7 °C	-9 °C
MNMKKLATLVSAVALSATVSANAMAKDTIALVVSTLNNPFFVSLKDGAQKEADKLGYNLVVLDSQNNPAKELANVQDLTVRGTKILLINPTDSDAVGNAVKMANQANIPVITLDRQATKGEVVSHIASDNVLGGKIAGDYIAKKAGEGAKVIELQGIAGTSAARERGEGFQQAVAAHKFNVLASQPADFDRIKGLNVMQNLLTAHPDVQAVFAQNDEMALGALRALQTAGKSDVMVVGFDGTPDGEKAVNDGKLAATIAALPDQIGAKGVETADKVLKGEKVQAKYPVDLKLVVKQ [Q260A]	58.2 °C and 58.9 °C	
MNMKKLATLVSAVALSATVSANAMAKDTIALVVSTLNAPFFVSLKDGAQKEADKLGYNLVVLDSQNNPAKELANVQDLTVRGTKILLINPTDSDAVGNAVKMANQANIPVITLDRQATKGEVVSHIASDNVLGGKIAGDYIAKKAGEGAKVIELQGIAGTSAARERGEGFQQAVAAHKFNVLASQPADFDRIKGLNVMQNLLTAHPDVQAVFAQNDEMALGALRALQTAGKSDVMVVGFDGTPDGEKAVNDGKLAATIAQLPDQIGAKGVETADKVLKGEKVQAKYPVDLKLVVKQ [N38A]	58.2 °C and 60.1 °C	0.7 °C and -3.6 °C
MNMKKLATLVSAVALSATVSANAMAKDTIALVVSTLNNPFFVSLKDGAQKEADKLGYNLVVLDSQNNPAKELANVQDLTVRGTKILLINPTDSDAVGNAVKMANQANIPVITLDRQATKGEVVSHIASDNVLGGKIAGDYIAKKAGEGAKVIELQGAAGTSAARERGEGFQQAVAAHKFNVLASQPADFDRIKGLNVMQNLLTAHPDVQAVFAQNDEMALGALRALQTAGKSDVMVVGFDGTPDGEKAVNDGKLAATIAQLPDQIGAKGVETADKVLKGEKVQAKYPVDLKLVVKQ [I157A]	57.3 °C and 61.2 °C	-0.2 °C and -2.5 °C
MNMKKLATLVSAVALSATVSANAMAKDTIALVVSTLNNPAFVSLKDGAQKEADKLGYNLVVLDSQNNPAKELANVQDLTVRGTKILLINPTDSDAVGNAVKMANQANIPVITLDRQATKGEVVSHIASDNVLGGKIAGDYIAKKAGEGAKVIELQGIAGTSAARERGEGFQQAVAAHKFNVLASQPADFDRIKGLNVMQNLLTAHPDVQAVFAQNDEMALGALRALQTAGKSDVMVVGFDGTPDGEKAVNDGKLAATIAQLPDQIGAKGVETADKVLKGEKVQAKYPVDLKLVVKQ [F40A]	52.5 °C and 54.2 °C	-5 °C and -9.5 °C
MNMKKLATLVSAVALSATVSANAMAKDTIALVVSTLNNPFFVSLKDGAQKEADKLGYNLVVLDSQNNPAKELANVQDLTVRGTKILLINPTDSDAVGNAVKMANQANIPVITLARQATKGEVVSHIASDNVLGGKIAGDYIAKKAGEGAKVIELQGIAGTSAARERGEGFQQAVAAHKFNVLASQPADFDRIKGLNVMQNLLTAHPDVQAVFAQNDEMALGALRALQTAGKSDVMVVGFDGTPDGEKAVNDGKLAATIAQLPDQIGAKGVETADKVLKGEKVQAKYPVDLKLVVKQ [D114A]	58.2 °C and 57.2 °C	
MNMKKLATLVSAVALSATVSANAMAKDTIALVVSTLNNPFFVSLKDGAQKEADKLGYNLVVLDSQNNPAKELANVQDLTVRGTKILLINPTDSDAVGNAVKMANQANIPVITLDRQATKGEVVSHIASDNVLGGKIAGDYIAKKAGEGAKVIELQGIAGTSAARERGEGFQQAVAAHKFNVLASQPADFDRIKGLNVMQNLLTAHPDVQAVFAQNDEMALGALRALQTAGKSDVMVVGADGTPDGEKAVNDGKLAATIAQLPDQIGAKGVETADKVLKGEKVQAKYPVDLKLVVKQ [F239A]	48 °C and 46 °C	
